We go through 47 molecules from patent US20120277142A1 (HANALL BIOPHARMA, published 2012).

First the molecules themselves.
B1: TNFRI171-S31 (receptor)
chain: MDSVCPQGKYIHPQNNSICCTKCHKGTYVYNDCPGPGQDTDCRECESGSFTAIENFLPACLSCSKCRKEMGQVEISSCTVDRDTVCGCRKNQYRHYWSENLFQCFNCSLCLNGTVHLSCQEKQNTVCTCHAGFFLRENECVSCSNCKKSLECTKLCLPQIENVKGTEDSGTT
notes: Met-TNFRI171 superlead mutant made in E. coli
B2: TNFRI171-S63 (receptor)
chain: B1 chain with I53M, A59G, K122N
notes: Met-TNFRI171 superlead mutant made in E. coli; also called TNFRI-S63
B3: TNFRI171-S44 (receptor)
chain: B1 chain with V29L, I53H, E161Q
notes: as for B1
B4: TNFRI171-S43 (receptor)
chain: B1 chain with V29L, I53H, K122N
notes: as for B1
B5: TNFRI171-S41 (receptor)
chain: B1 chain with I53H
notes: as for B1
B6: TNFRI171-S52 (receptor)
chain: B1 chain with V29L, E54P, A59G, D168N
notes: as for B1
B7: TNFRI171-S40 (receptor)
chain: B1 chain with V29L, I53M, D168N
notes: as for B1
B8: TNFRI171-S62 (receptor)
chain: B1 chain with A59G, K122Q
notes: as for B1
B9: TNFRI171-S38 (receptor)
chain: B1 chain with V29L, I53M, K122N
notes: as for B1
B10: TNFRI171-S53 (receptor)
chain: B1 chain with K122Q
notes: as for B1
B11: TNFRI171-S51 (receptor)
chain: B1 chain with V29L, E54P, A59G, E161Q
notes: as for B1
B12: TNFRI171-S50 (receptor)
chain: B1 chain with V29L, E54P, A59G, K122N
notes: as for B1
B13: TNFRI171-S35 (receptor)
chain: B1 chain with V29L, D168N
notes: as for B1
B14: TNFRI171-S46 (receptor)
chain: B1 chain with A59G
notes: as for B1
B15: TNFRI171-S48 (receptor)
chain: B1 chain with E54P, A59G
notes: as for B1
B16: TNFRI171-S55 (receptor)
chain: B1 chain with D168N
notes: as for B1
B17: TNFRI171-S54 (receptor)
chain: B1 chain with K122N
notes: as for B1
B18: TNFRI171-S32 (receptor)
chain: B1 chain with V29L, K122Q
notes: as for B1
B19: TNFRI171-S37 (receptor)
chain: B1 chain with V29L, I53M, K122Q
notes: as for B1
B20: TNFRI171-S33 (receptor)
chain: B1 chain with V29L, K122N
notes: as for B1
B21: TNFRI171-S42 (receptor)
chain: B1 chain with V29L, I53H, K122Q
notes: as for B1
B22: TNFRI171-S49 (receptor)
chain: B1 chain with V29L, E54P, A59G, K122Q
notes: as for B1
B23: TNFRI171-S39 (receptor)
chain: B1 chain with V29L, I53M, E161Q
notes: as for B1
B24: TNFRI171-S60 (receptor)
chain: B1 chain with I53H, K122N
notes: as for B1
B25: TNFRI171-S47 (receptor)
chain: B1 chain with I53M, A59G
notes: as for B1
B26: TNFRI171-S57 (receptor)
chain: B1 chain with I53M, K122N
notes: as for B1
B27: TNFRI171-S59 (receptor)
chain: B1 chain with I53H, K122Q
notes: as for B1
B28: TNFRI171-S36 (receptor)
chain: B1 chain with I53M
notes: as for B1
B29: TNFRI171-S34 (receptor)
chain: B1 chain with V29L, E161Q
notes: as for B1
B30: TNFRI171-S45 (receptor)
chain: B1 chain with V29L, I53H, D168N
notes: as for B1
B31: TNFRI171-S61 (receptor)
chain: B1 chain with I53H, D168N
notes: as for B1
B32: TNFRI171-S56 (receptor)
chain: B1 chain with I53M, K122Q
notes: as for B1
B33: TNFRI171-S58 (receptor)
chain: B1 chain with I53M, D168N
notes: as for B1
B34: TNFRI126-A2 (receptor)
chain: MDSVCPQGKYIHPQNNSICCTKCHKGTYLYNDCPGPGQDTDCRECESGSFTAIENFLPACLSCSKCRKEMGQVEISSCTVDRDTVCGCRKNQYRHYWSENLFQCFNCSLCLNGTVHLSCQEKQNTVC
notes: Met-TNFRI126 mutant made in E. coli
B35: TNFRI126-A7 (receptor)
chain: B34 chain with I53P
notes: as for B34
B36: TNFRI126-A13 (receptor)
chain: B34 chain with I53Q
notes: as for B34
B37: TNFRI126-A4 (receptor)
chain: B34 chain with I53A
notes: as for B34
B38: TNFRI126-A5 (receptor)
chain: B34 chain with I53V
notes: as for B34
B39: TNFRI126-A6 (receptor)
chain: B34 chain with I53L
notes: as for B34
B40: TNFRI126-A12 (receptor)
chain: B34 chain with I53N
notes: as for B34
B41: TNFRI126-A9 (receptor)
chain: B34 chain with I53M
notes: as for B34
B42: TNFRI126-A14 (receptor)
chain: B34 chain with I53T
notes: as for B34
B43: TNFRI126-A3 (receptor)
chain: B34 chain with I53G
notes: as for B34
B44: TNFRI126-A1 (receptor)
chain: B34 chain with I53S
notes: as for B34
B45: TNFRI126-A8 (receptor)
chain: B34 chain with I53F
notes: as for B34
B46: TNFRI126-A15 (receptor)
chain: B34 chain with I53Y
notes: as for B34
B47: TNFRI126-A10 (receptor)
chain: B34 chain with I53W
notes: as for B34

Where a chain is given by its changes, count along the chain named.

One test addresses T1, TNF-α (UniProt P01375 77-233, limits assumed).
T1 construct: also called tumor necrosis factor; ligand
Kind of test: competition ELISA: sample vs plate-bound TNFRI190 for TNF-α, from IC50, relative to wild-type TNFRI171. On the procedure: (§1) Each well was washed three times with 300 μL of washing buffer (0.05% Tween-20, PBS, pH 7.4) and incubated at room temperature for 2 hours with 300 μL of a blocking buffer (5% skim milk, PBS, pH 7.4). Then, each well was washed as mentioned above. A sample of interest was diluted to concentrations of 500 nM, 125 nM, 31 nM, 7.8 nM, 1.9 nM, 0.48 nM, 0.12 nM, and 0.03 nM in series and loaded in an amount of 100 μL into each well in duplicate. To each well was added 100 μL of 50 ng/ml TNF-α, followed by incubation at room temperature for 2 hours. After the wells were washed with a washing buffer, 100 μg/mL anti-TNF-α antibody solution was diluted 1/1000, added in an amount of 100 μL per each well, and incubated at room temperature for 2 hours. After the plates were washed with a washing buffer, a substrate was added in an amount of 100 μL to each well and reacted at room temperature for 15 min. In each well, 100 μL of the substrate 3,3′,5,5′-tetramethylbenzidine (RnD, Cat. No: DY999) was reacted at room temperature for 15 min, followed by adding 50 μL of 1.0 M sulfuric acid (Samchun Chemical, Cat. No: 52129) to each well to stop the reaction.
The affinity of the Met-TNFRI for TNF-α was assayed using the same procedure as in [Experimental Example 1]
On to B1, for which the “Relative Affinity for Ligand (%)” value worked out at 563%.

As to B2, the “Relative Affinity for Ligand (%)” value was determined as 1350%.

On to B3, for which the “Relative Affinity for Ligand (%)” value was 694%.

In the case of B4, the “Relative Affinity for Ligand (%)” value turned out to be 579%.

Turning to B5, the “Relative Affinity for Ligand (%)” value worked out at 558%.

For B6, the “Relative Affinity for Ligand (%)” value is 626%.

Take B7: the “Relative Affinity for Ligand (%)” value is 773%.

On to B8, for which the “Relative Affinity for Ligand (%)” value turned out to be 1200%.

Consider B9, for which the “Relative Affinity for Ligand (%)” value came out at 589%.

As for B10, the “Relative Affinity for Ligand (%)” value amounted to 1020%.

As for B11, the “Relative Affinity for Ligand (%)” value was 537%.

Regarding B12, the “Relative Affinity for Ligand (%)” value was 589%.

Regarding B13, the “Relative Affinity for Ligand (%)” value was determined as 521%.

Regarding B14, the “Relative Affinity for Ligand (%)” value turned out to be 805%.

Turning to B15, the “Relative Affinity for Ligand (%)” value came to 594%.

For the molecule B16, the “Relative Affinity for Ligand (%)” value was 973%.

Consider B17, for which the “Relative Affinity for Ligand (%)” value amounted to 900%.

Regarding B18, the “Relative Affinity for Ligand (%)” value is 668%.

On to B19, for which the “Relative Affinity for Ligand (%)” value is 668%.

Regarding B20, the “Relative Affinity for Ligand (%)” value is 568%.

On to B21, for which the “Relative Affinity for Ligand (%)” value was found to be 416%.

B22: the “Relative Affinity for Ligand (%)” value turned out to be 547%.

Turning to B23, the “Relative Affinity for Ligand (%)” value worked out at 705%.

B24: the “Relative Affinity for Ligand (%)” value came out at 775%.

With B25, the “Relative Affinity for Ligand (%)” value was 758%.

For the molecule B26, the “Relative Affinity for Ligand (%)” value is 773%.

B27: the “Relative Affinity for Ligand (%)” value was determined as 684%.

Consider B28, for which the “Relative Affinity for Ligand (%)” value came out at 510%.

With B29, the “Relative Affinity for Ligand (%)” value worked out at 700%.

For B30, the “Relative Affinity for Ligand (%)” value is 679%.

For the molecule B31, the “Relative Affinity for Ligand (%)” value amounted to 778%.

For B32, the “Relative Affinity for Ligand (%)” value was found to be 510%.

B33: the “Relative Affinity for Ligand (%)” value turned out to be 978%.

The next test deals with T1, TNF-α. Kind of test: competition ELISA: sample vs plate-bound TNFRI190 for TNF-α, from IC50, relative to wild-type TNFRI126. On the procedure: as §1
Affinity of Met-TNFRI and Met-TNFRI mutants for TNF-α was determined by measuring an absorbance change with concentration and evaluating IC₅₀ value by measuring an absorbance change with concentration.
Background: ELISA stands for enzyme-linked immunosorbent assay.
With B34, the “Affinity (%)” value is 829%.

As to B35, the “Affinity (%)” value was 600%.

As for B36, the “Affinity (%)” value came out at 806%.

Take B37: the “Affinity (%)” value was found to be 524%.

For B38, the “Affinity (%)” value was 712%.

For B39, the “Affinity (%)” value was 741%.

For B40, the “Affinity (%)” value turned out to be 659%.

For B41, the “Affinity (%)” value is 941%.

With B42, the “Affinity (%)” value was 765%.

In the case of B43, the “Affinity (%)” value stood at 341%.

For the molecule B44, the “Affinity (%)” value worked out at 324%.

Regarding B45, the “Affinity (%)” value is 865%.

As to B46, the “Affinity (%)” value amounted to 941%.

B47: the “Affinity (%)” value worked out at 800%.
